According to publication PMC12823420 (Nature, 2024):
Where no end group is shown, it is not given here.

Experiments:
Settings in all cases: both partners purified
[1] = molecular target: T1, UAP56 (human, UniProt Q13838 1-428); assay: pull-down
T1 construct: The methods name 6×His-TwinSTREPII-3C-UAP56 and 10×His-3C-UAP56; also called DDX39B; DDX39

[2] = molecular target: T1, UAP56; assay: pull-down; MBP-tagged full-length or truncated ALYREF (2.5 µM) on amylose resin with 12.5 µM UAP56, UCM-1, N-UBM or C-UBM or 6 µM full-length SARNP; with or without 1 mM ATP and 200 µM 15 U RNA; Coomassie
[3] = molecular target: T1, UAP56; assay: grating-coupled interferometry (GCI); biotinylated UBM or UCM peptides captured on a streptavidin chip; UAP56 injected; 25 mM HEPES pH 7.9, 50 mM KCl, 1 mM MgCl2, 1 mM TCEP, 25 °C; one-to-one model; UCM peptides also with AMP-PNP or AMP-PNP and 15 U RNA
[4] = molecular target: T2, Flag-tagged UAP56 (human, UniProt Q13838 1-428); assay: pull-down; Flag-tagged UAP56 (5 µM) on anti-Flag M2 beads with WT or mutant SARNP (20 µM); buffer A2, room temperature 1 h; Coomassie
T2 construct: Used in an in vitro pull-down analysed by Coomassie staining

| Binder | binding result [2] | binding result [4] | other results |
| --- | --- | --- | --- |
| VDVAAEKKVVKITSEIPQTERMQKRAERFNVPVS (also called Sumo-V5–UCM-1; SUMO-V5-3C–UCM; source: E. coli BL21 DE3 RIL, purified (HisTrap, HiTrapQ, Superdex 75)) [10×His-SUMO-3V5-tagged SARNP UCM-1 (residues 82-115)] | – | – | binding result [1]: binds |
| MBP-tagged ALYREF^C (residues 106–257) (domain or fragment, also called ALYREF harbouring only a C-UBM) not shown | binds | – | – |
| MBP-tagged ALYREF^N (residues 1–182) (domain or fragment, also called ALYREF construct harbouring only an N-UBM) not shown | binds | – | – |
| SISRKSEDDEKLKKRKERFGIVTS (also: biotinylated, site not given here) [SARNP UCM-4 peptide, biotinylated] | – | – | Kd [3]: 10 to 20 µM |
| MBP-SARNP^47–210-3C-3V5-SUMO-10×His (domain or fragment, human, UniProt P82979 47-210, looked up, SARNP, human, residues 47-210; also called MBP-SARNP residues 47-210; SARNP lacking the N-terminal SAP domain; source: E. coli BL21 DE3 RIL, purified; not shown: MBP, N-terminal, kept) EEEANEEDVLGDETEEEETKPIELPVKEEEPPEKTVDVAAEKKVVKITSEIPQTERMQKRAERFNVPVSLESKKAARAARFGISSVPTKGLSSDNKPMVNLDKLKERAQRFGLNVSSISRKSEDDEKLKKRKERFGIVTSSAGTGTTEDTEAKKRKRAERFGIA | – | binds | – |
| SARNP-6×His (full-length SARNP) (natural protein, human, UniProt P82979 1-210, looked up, SARNP, human; also called CIP29; recombinant full length SARNP; source: E. coli BL21 DE3 RIL, purified (HisTrap, HiTrapQ, Superdex 200)) MATETVELHKLKLAELKQECLARGLETKGIKQDLIHRLQAYLEEHAEEEANEEDVLGDETEEEETKPIELPVKEEEPPEKTVDVAAEKKVVKITSEIPQTERMQKRAERFNVPVSLESKKAARAARFGISSVPTKGLSSDNKPMVNLDKLKERAQRFGLNVSSISRKSEDDEKLKKRKERFGIVTSSAGTGTTEDTEAKKRKRAERFGIA | – | binds | – |
